The record followed here is patent US20080206239A1 (ANTITOPE, published 2008).

The target in this test is human TNFα (human, UniProt P01375 77-233). Briefly: cell-based or functional assay.
Chain of human TNFα (P01375 77-233 limits assumed): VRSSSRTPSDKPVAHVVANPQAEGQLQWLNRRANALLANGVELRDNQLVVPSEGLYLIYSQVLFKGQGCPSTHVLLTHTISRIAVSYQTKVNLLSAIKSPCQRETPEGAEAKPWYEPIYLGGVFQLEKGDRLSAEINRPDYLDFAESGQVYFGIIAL

B1: antibody of heavy chain SEQ. ID. No. 3 and light chain SEQ. ID. No. 2 (antibody, human IgG1, V domains shown)
VH: EVQLVESGGGLVQPGGSLKLSCVASGFIFSNHWMNWVRQAPGKGLEWVAEIRSKSINSATHYAESVKGRFTISRDDSKSIVYLQMTDLRTEDTGVYYCSRNYYGSTYDYWGQGTTVTVSS
VL: DILLTQSPAILSVSPGERVSFSCRASQFVGSSIHWYQQRTNGSPRLLIKYASESMSGIPSRFSGSGSGTDFTLSINTVESEDIADYYCQQSHSWPFTFGSGTNLEVK
As to B1, the “Ratio of Activities compared to Chimeric Antibody (fold difference, WEHI-164 protection assay at 25 ng/ml)” value stood at 1.38 fold.

B2: antibody of heavy chain SEQ. ID. No. 6 and light chain SEQ. ID. No. 2 (antibody, human IgG1, V domains shown)
VH: EVQLVESGGGLVQPGGSLKLSCVASGFIFSNHWMNWVRQAPGKGLEWVAEIRSKSINSATHYAESVKGRFTISRDDSKSIVYLQMNSLKTEDTGVYYCSRNYYGSTYDYWGQGTTVTVSS
VL: DILLTQSPAILSVSPGERVSFSCRASQFVGSSIHWYQQRTNGSPRLLIKYASESMSGIPSRFSGSGSGTDFTLSINTVESEDIADYYCQQSHSWPFTFGSGTNLEVK
For the molecule B2, the “Ratio of Activities compared to Chimeric Antibody (fold difference, WEHI-164 protection assay at 25 ng/ml)” value was determined as 1.2 fold.

B3: antibody of heavy chain SEQ. ID. No. 5 and light chain SEQ. ID. No. 2 (antibody, human IgG1, V domains shown)
VH: EVQLVESGGGLVQPGGSLKLSCVASGFIFSNHWMNWVRQAPGKGLEWVAEIRSKSINSATHYAESVKGRFTISRDDSKSIVYLQMNDLKTEDTGVYYCSRNYYGSTYDYWGQGTTVTVSS
VL: DILLTQSPAILSVSPGERVSFSCRASQFVGSSIHWYQQRTNGSPRLLIKYASESMSGIPSRFSGSGSGTDFTLSINTVESEDIADYYCQQSHSWPFTFGSGTNLEVK
Regarding B3, the “Ratio of Activities compared to Chimeric Antibody (fold difference, WEHI-164 protection assay at 25 ng/ml)” value is 1.24 fold.

B4: antibody of heavy chain SEQ. ID. No. 7 and light chain SEQ. ID. No. 2 (antibody, human IgG1, V domains shown)
VH: EVQLVESGGGLVQPGGSLKLSCAASGFIFSNHWMNWVRQAPGKGLEWVAEIRSKSINSATHYAESVKGRFTISRDDSKSIVYLQMNSLKTEDTGVYYCSRNYYGSTYDYWGQGTTVTVSS
VL: DILLTQSPAILSVSPGERVSFSCRASQFVGSSIHWYQQRTNGSPRLLIKYASESMSGIPSRFSGSGSGTDFTLSINTVESEDIADYYCQQSHSWPFTFGSGTNLEVK
With B4, the “Ratio of Activities compared to Chimeric Antibody (fold difference, WEHI-164 protection assay at 25 ng/ml)” value worked out at 1.02 fold.
